According to patent US20260078159A1 (CUGENE, published 2026):

B1: P-1271 (antibody, human IgG1, kappa, V domains shown)
VH: QVQLVQSGAEVKKPGASVKVSCKASGYTFTNYYMYWVRQAPGQGLEWMGGINPSNGGTNFAQKFQGRVTLTTDSSTSTAYMELSSLRSDDTAVYYCARRDYRFDMGFDYWGQGTLVTVSS
VL: EIVLTQSPATLSLSPGERATLSCRASQGVSTSGYSYLHWYQQKPGQAPRLLIYLASYRESGVPARFSGSGSGTDFTLTISSLEPEDFAVYYCQHSRDLPLTFGGGTKVEIKR
B2: P-1201 (antibody, human IgG1, kappa, V domains shown)
VH: EVQLLESGGGLVQPGGSLRLSCAASGFTFTNYYMYWVRQAPGKGLEWVSGINPSNGGTNFADKFKGRFTLSTDSSKNTLYLQMNSLRAEDTAVYYCARRDYRFDMGFDYWGQGTLVTVSS
VL: EIVLTQSPATLSLSPGERATLSCRASQGVSTSGYSYLHWYQQKPGQAPRLLIYLASYRESGVPARFSGSGSGTDFTLTISSLEPEDFAVYYCQHSRDLPLTFGGGTKVEIKR
B3: P-1199 (antibody, human IgG1, kappa, V domains shown)
VH: EVQLLESGGGLVQPGGSLRLSCAASGFTFTNYYMYWVRQAPGKGLEWVSGINPSNGGTNFADKFKGRFTISTDSSKNTLYLQMNSLRAEDTAVYYCARRDYRFDMGFDYWGQGTLVTVSS
VL: EIVLTQSPATLSLSPGERATLSCRASQGVSTSGYSYLHWYQQKPGQAPRLLIYLASYRESGVPARFSGSGSGTDFTLTISSLEPEDFAVYYCQHSRDLPLTFGGGTKVEIKR
notes: Full-length IgG1 L234A/L235A/G237A, kappa
B4: P-1193 (antibody, human IgG1, kappa, V domains shown)
VH: EVQLLESGGGLVQPGGSLRLSCAASGFTFTNYYMYWVRQAPGKGLEWVSGINPSNGGTNFADKFKGRFTISRDNSKNTLYLQMNSLRAEDTAVYYCARRDYRFDMGFDYWGQGTLVTVSS
VL: EIVLTQSPATLSLSPGERATLSCRASQGVSTSGYSYLHWYQQKPGQAPRLLIYLASYRESGVPARFSGSGSGTDFTLTISSLEPEDFAVYYCQHSRDLPLTFGGGTKVEIKR
notes: as for B3

Experiments:
[1] = biological target: T1, recombinant human PD1 protein (human, UniProt Q15116 25-170, limits assumed); test: competition ELISA, PD1 coated, biotinylated human PD-L1-Fc at 0.5 µg/mL as competitor
Description: A non-targeting germline antibody, P-1260 (SEQ ID NOS: 171, 172 and 173) was included as the negative control. The binding ELISA procedures were outlined in Example 3. The competition ELISA followed a similar protocol. […] After 1-hour incubation at 37° C., HRP-conjugated Streptavidin (ThermoFisher) diluted to 0.1 μg/ml were added to the plate and incubate at 37° C. for 1 hour. The plate was subsequently developed using TMB (ThermoFisher) substrate. Absorbance readings were taken at 450 nm, with 630 nm as the reference wavelength. The half-maximal inhibitory concentrations (IC50) values were deduced using GraphPad Prism software.

human PD1 on cells [2] = biological target: T2, human PD1 on cells (human, UniProt Q15116 25-288); test: cell-based or functional assay
[3] = biological target: T1, recombinant human PD1 protein; test: binding ELISA, plate-coated recombinant human PD1
Description: Antibodies of the invention were tested for their antigen binding activity by well-known methods such as enzyme-linked immunosorbent assay (ELISA). Briefly, Nunc Maxisorp plates (ThermoFisher) were coated with recombinant human PD1 protein in bicarbonate buffer, pH 9.4 (ThermoFisher), overnight at 4° C., using 1 μg of antigen per well (100 μL/well). After triple washing with PBS/0.05% Tween 20, plates were incubated with SuperBlock (ThermoFisher) for two hours at room temperature to block nonspecific binding. The PD1 antibodies, serially diluted three-fold with blocking buffer (PBS with 1% bovine serum albumin) were added to the plates (100 μL/well) post washing and incubated at room temperature for one hour. After another washing, antibodies were detected by incubating with a horseradish peroxidase (HRP)-conjugated goat anti-human IgG Fc antibody (ThermoFisher) diluted 1:5000 in blocking buffer (100 μL/well) for one hour at room temperature. After a final wash, TMB substrate (ThermoFisher) at 100 μL/well was added. Plates were sealed and left to incubate in dark for 5-20 minutes. The reaction was stopped by adding 2N sulfuric acid (Ricca Chemical) (50 μL/well), and the absorbance was measured at 450 nm with a plate reader. The curves were plotted, and the half-maximal effective concentration (EC₅₀) values were calculated using GraphPad Prism software.

human PD1 on cells [4] = biological target: T2, human PD1 on cells; test: flow cytometry on PD1+ HEK293 cells, MFI
Description: (§1) Additionally, HEK 293T cells stably expressing human PD1 gene (Crown Bioscience) was used to determine the cell-based binding strength of the optimized PD1 antibodies by flow cytometry. After harvesting, HEK293-hPD1 cells were seeded into a 96-well U-bottom plate at 1×10⁵ cells/well (100 μL), incubated with Fc block (1:50) for 20 minutes at 4° C., and subsequently washed with FACS buffer (PBS, 1% FBS). Cells were then treated with three-fold serial dilutions of each antibody at concentrations ranging from 0.01-100 nM in FACS buffer for 30 minutes at 4° C. Subsequently, cells were washed twice with FACS buffer to remove unbound molecules, and 40 µL of the 1:100 diluted PE-labeled goat anti-human Fc secondary antibody (eBiosciences) was added to the cells. Following a 30-minute incubation at 4° C. and another double wash with FACS buffer, antibodies bound to the cells were detected with PE-labeled secondary antibody by flow cytometry (BD ACCURI-C6), and EC₅₀ values were calculated using GraphPad Prism software.

human PD1 on cells [5] = biological target: T2, human PD1 on cells; test: flow cytometry on PD1+ HEK293 cells, % positive cells
Description: as §1

T2 sequence (Q15116 25-288 limits assumed): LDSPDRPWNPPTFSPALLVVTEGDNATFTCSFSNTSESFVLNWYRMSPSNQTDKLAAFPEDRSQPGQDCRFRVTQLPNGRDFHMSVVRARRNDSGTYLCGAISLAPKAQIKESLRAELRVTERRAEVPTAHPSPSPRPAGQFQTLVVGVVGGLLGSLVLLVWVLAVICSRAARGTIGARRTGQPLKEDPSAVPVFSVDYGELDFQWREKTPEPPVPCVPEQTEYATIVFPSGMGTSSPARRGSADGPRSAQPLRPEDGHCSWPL
T1 sequence (Q15116 25-170 limits assumed): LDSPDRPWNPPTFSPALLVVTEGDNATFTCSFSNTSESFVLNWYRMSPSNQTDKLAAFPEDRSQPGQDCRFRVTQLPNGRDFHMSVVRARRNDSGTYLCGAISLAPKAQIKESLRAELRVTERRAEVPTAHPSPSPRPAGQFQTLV

Row | Binder | IC50 [1] | PD1 blockade reporter assay EC50 (human PD1 on cells [2]) | EC50 [3] | EC50 (human PD1 on cells [4]) | EC50 (human PD1 on cells [5])
1 | B1 | 1.42 nM | 0.66 nM | 0.0268 nM |  | 
2 | B2 |  | 1.28 nM |  | 0.159 nM | 0.033 nM
3 | B3 |  |  |  | 0.12 nM | 0.016 nM
4 | B4 |  |  |  | 0.259 nM | 0.07 nM
